In patent US20160287696A1, “PAN POLLEN IMMUNOGENS AND METHODS AND USES FOR IMMUNE RESPONSE MODULATION” (LA JOLLA INSTITUTE FOR ALLERGY AND IMMUNOLOGY, priority 2013, published 2016):

B1: NTGA 8: Phl p wild type sequence, Table 2 (protein)
chain: FEGCLAKSYKSEKSDKSATYDYSANIECEKEPPKPLYGGGILTGAEAPAPVSAGGKKLLMAKSKSAPAKGSTLKVELEKDTHYTLSAWLQLSKSTGDVKAILVTPDGNFNTAGMLVVQSGCWTMLKGGATSFAAGKGELFFETNVTAELMVDSMSLQPFSFEEWKSHRHESIAKERKKKVKITVHGSDGKVLPDAELSLERVAKGFPLGNAMTKEILDIPEYEKWFTSRFTVATMENEMKWYSTEYDQNQELYEIPDKMLALAEKYNISVRGHNVFWDDQSKQMDWVSKLSAPQLKKAMEKRMKNVVSRYAGKLIHWDVLNENLHYSFFEDKLGKDASAEVFKEVAKLDDKPILFMNEYNTIEEPNDAAPLPTKYLAKLKQIQSYPGNSKLKYGIGLESHFDTPNIPYVRGSLDTLAQAKVPIWLTEIDVKKGPKQVEYLEEVMREGFAHPGVKGIVLWGAWHAKECYVMCLTDKNFKNLPVGDVVDKLITEWKAVPEDAKTDDKGVFEAELFHGEYNVTVKHKS
modifications: Phleum Pratense
B2: NTGA 39/59: Phl p wild type full length sequence from which PG+ peptides of NTGA's 39 and 59 derive (protein)
chain: MAPRKFFVGGNWKCNGASDDVKKIVTVLNEAEVPSEDAVEVVVSPPFVFLQQAKALLRPDFAVAAQNCWVRKGGAFTGEISAEMLVNLQVPWVILGHSERRALLSESNDFVADKVAYALAQGLKVIACIGETLEQREAGTTMEVVAAQTKAIAEKISDWTNVVLAYEPVWAIGTGKVASRAQAQEVHDGLRKWLHANVGPAVAESTRIIYGGSVNGANCKELAAQPDLDGFLVGGASLKPEFVDIIKSATVKSSS
modifications: Phleum Pratense
B3: NTGA 87: Phl p wild type sequence, Table 2 (protein)
chain: MAVKVYVVYYSMYGHVGKLAEEIKKGASSVEGVEVKVWQVPEILSEEVLGKMGAPPKTDVPIISPQELAEADGILFGFPTRFGMMASQMKAFFDATGGLWREQSLAGKPAGVFFSTGTQGGGQETTPLTAVTQLTHHGMVFVPVGYTFGAKMFDMEKVQGGSPYGAGTFAGDGSRWPSEMELEHAFHQGKYFAGIAKKLKGS
modifications: Phleum Pratense
B4: NTGA 13: Phl p wild type sequence, Table 2 (protein)
chain: MDEEYDVIVLGTGLKECILSGLLSVDGLKVLHMDRNDYYGGESTSLNLTKIWKRFKGSEATPDHLGVSKEYNVDMVPKFMMANGALVRVLIRTSVTKYLNFKAVDGSFVYNNGKIHKVPATDVEALKSNLMGLFEKRRARKFFIYVQDYEEEDPKSHEGLDLHKVTTREVISKYGLEDDTVDFIGHALALHRDDNYLDEPAIDTVKRMKLYAESLARFQGGSPYIYPLYGLGELPQAFARLSAVYGGTYMLNKPECKVEFDESGKAFGVTSEGETAKCKKVVCDPSYLPDKVTKVGRVARAICIMKHPIPDTKDSHSVQIILPKKQLKRKSDMYVFCCSYAHNVAPKGKFIAFVSTEAETDKPEIELKPGIDLLGPVEETFFDIYDRYEPANAPEEDNCFVTNSYDATTHFETTVKDVLALYSKITGKELDLSVDLNAASAGESE
modifications: Phleum Pratense
B5: NTGA 3: Phl p wild type sequence, Table 2 (protein)
chain: MDDHKEHKEKEHTGGNPEVNEEEEEDEEAKRAVLLGPQVPLKEQLELDKDDESLRRWKEQLLGQVDTEQLGETAEPEVKVVDLTILSPDRPDLVLPIPFVADEKGYAFALKDGSTYSFRFSFIVSNNIVSGLKYTNTVWKTGVRVENQKMMLGTFSPQPEPYIYVGEEETTPAGIFARGSYSAKLKFVDDDGKVYLEMSYYFEIRKDWPTGQ
modifications: Phleum Pratense
B6: NTGA 52: Phl p wild type sequence, Table 2 (protein)
chain: MDACRLLLLLLLGLLGLLAPLASAQLSREFYKASCPDAEKIVAAVIEKKLKEDPGTAAGLLRLLFHDCFANGCDASILIDPLSNQSAEKEAGPNISVRGFEVIDDIKKELEAKCPKTVSCADIVALGTRDAVRISGGPAYEVPTGRRDSLVSNREEADNNLPGPDIPIPKLTSEFLSRGFTPEEMVVLLAGGHSIGKVRCIFIEPDATPMDPGYQASISKLCDGPNRDTGFVNMDEHNPNVIDSSYFANVLAKKMPLTVDRLLGLDSKTTPIIKNMLNKPNDFMPTFAKAMEKLSVLKVITGKDG
modifications: Phleum Pratense
B7: NTGA 6: Phl p wild type sequence, Table 2 (protein)
chain: MADEKLAKLREAVAGLPQISDNEKSGFISLVSRYLSGEEEHIEWPKIHTPTDEVVVPYDTVDAPPEDLEATKALLDKLAVLKLNGGLGTTMGCTGPKSVIEVRNGFTFLDLIVLQIESLNKKYGSNVPLLLMNSFNTHEDTLKIVEKYANSSIDIHTFNQSQYPRVVADEFLPWPSKGKTDKDGWYPPGHGDIFPSLMNSGKLDLLLSQGKEYVFIANSDNLGAIVDMKILNHLIHKQNEYCMEVTPKTLADVKGGTLISYEGRVQLLEIAQVPDAHVDEFKSIEKFKIFNTNNLWVNLKAIKRLVEADALKMEIIPNPKEVDGVKVLQLETAAGAAIRFFDHAIGINVPRSRFLPVKATSDLQLVQSDLYTLVDGFVTRNSARTDPSNPSIELGPEFKKVGSFLGRFKSIPSIVELDSLKVSGDVWFGSGIVLKGKVTITAKPGVKLEIPDGAVLENKDINGAEDL
modifications: Phleum Pratense
B8: NTGA 73: Phl p wild type sequence, Table 2 (protein)
chain: MSSAKQVLEPAFQGAGQKPGTEIWRIENFNPVPLPKSDYGKFYCGDSYIVLQTTCNKGGAYLFDIHFWIGKDSSQDEAGTSAIKTVELDTMLGGRAVQHREPQGYESDKFLSYFKPCIIPLEGGFASGFKTPEEEKFETRLYICKGKRAIRVKEVPFARSSLNHDDVFILDTEKKIYQFNGANSNIQERAKALEVIQHLKDKYHEGVCDVAIVDDGKLQAESDSGEFWVVFGGFAPIGKKTVSDDDVILETSPTKLYSINNGKLKLEDIVLTKSILENTKCFLLDCGSELFVWVGRVTQVDDRKAASAAVEEFIVKQNRPKTTRVTQVIQGYENHTFKSLFESWPVSSTGNASTEEGRGKVAALLKKKGDVKGASKNSTPVNEEVPPLLEGSGKLEVWCVDGSAKTALPKEDLGKFHSGDCYIVLYTYHSGEKREEFYLTYWIGKDSVLEDQHMALQIATTIWNSMKGRPVLGRIYQGKEPPQFIALFQPMVILKGGISSGYKKSIEENGLKDETYSGTGIALVHIHGTSIHNNKTLQVDAVSISLSSTDCFVLQSGNSMFTWIGNTSSYEQQQWAAKVAEFLKPGASVKHCKEGTESSAFWSALGGKQNYTSKNATQDVLREPHLYTFSFRNGKLEVTEVFNFSQDDLLTEDVMILDTHAEVFVWMGQCVDTKEKQTAFETGQKYVEHAVNFEGLSPDVPLYKVSEGNEPCFFRTYFSWDNTRSVIHGNSFQKKLSLLFGMRSESGSKGSGDGGPTQRASALAALSSAFNPSSQDKQSNDRPKSSGDGGPTQRASALAALSSSLNPSSKPKSPHSQSRSGQGSQRAAAVAALSNVLTAEGSTLSPRNDAEKTELAPSEFHTDQDAPGDEVPSEGERTEPDVSQEETANENGGETTFSYDRLISKSTDPVRGIDYKRRETYLSDSEFETVFGVTKEEFYQQPRWKQELQKRKADLF
modifications: Phleum Pratense
B9: NTGA 19: Phl p wild type sequence, Table 2 (protein)
chain: GVVATTDAVEACTGVNVAVMVGGFPRKEGMERKDVMSKNVSIYKSQASALEAHAAPNCKVLVVANPANTNALILKEFAPSIPEKNISCLTRLDHNRALGQVSERLNVQVSDVKNVLIWGNHSSSQYPDVNHATVKTSSGEKPVRELVQDDEWLNGPFIATVQQRGAAIIKARKLSSALSAASSACDHIRDWVLGTPEGTFVSMGVYSDGSYGVPAGLIYSFPVTCSGGEWTIVQGLPIDEFSRKKMDATAQELSEEKALAYSCL
modifications: Phleum Pratense

Assays:
[1] = system: cultured PBMCs of the allergic donors; assay: ELISPOT of IL-5 or IFNg production by cultured PBMCs of TG allergic donors in response to peptide; assay type: cell-based, human; settings: for # Th+: Table 7, peptides per NTGA recognized by T cells of grass allergic donors (n=20); for NTGA's containing at least one T cell epitope, Th+ (Col 2): NTGA number given = criterion met, TG allergic donors n=20; for No of PG+ & th+ peptides per NTGA / No of PP & Th+ peptides per NTGA: Table 6; for No of PG+ & th+ peptides per NTGA: PG+ peptides recognized by T cells of grass allergic donors (n=20); for No of PP & Th+ peptides per NTGA: PP peptides recognized by T cells of grass allergic donors (n=20)
Outline: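 Counts of responding donors among 20 TG-allergic subjects, judged by ELISPOT for IL-5 or IFNg (positive: minimum 20 SFCs/10^6 PBMCs, stimulation index 2 or more, P .05). Cells were pre-expanded with TG pollen extract or peptide pool, then stimulated at 1×10^5/well with 10 μg/mL peptide.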

splenocytes = assay: Prophylactic SLIT tolerance induction in mice, splenocyte proliferation; assay type: in vivo, BALB/c mice; settings: prophylactic SLIT two weeks, FIG. 3A / 3C
From the text: Then the tolerance induction of NTGA 86/51 was investigated in a prophylactic mice model using sublingual administration (FIG. 3)
The ability of NTGA 86/51 and NTGA 6 to induce prophylactic tolerance was investigated by SLIT treating naive BALB/c mice with NTGA 86/51 or NTGA 6 for two weeks (Monday-Friday) followed by one Phl p extract sensitization or sensitization to the immunogen itself (NTGA 86/51 or NTGA 6) as described above. Eleven days after the sensitization, splenocytes were harvested and stimulated in vitro with NTGA 86/51 as well as Phl p extract.

Molecule	# Th+ [1]	NTGA's containing at least one T cell epitope, Th+ (Col 2) [1]	No of PG+ & th+ peptides per NTGA [1]	No of PP & Th+ peptides per NTGA [1]	tolerance towards the immunogen itself (proliferation of splenocytes vs buffer (sham) treated mice) (splenocytes)	immune reactivity (SFC counts in ELISPOT) of highly conserved PG+ peptides derived from the NTGA [1]	T cell reactivity of sequences contained in the protein ([1]; among top pan-pollen NTGA's ranked by number of PP peptides)	PG+ peptides recognized by grass allergic donors ([1]; n=20 grass allergic donors, PG+ peptides of the NTGA)
B1	0							
B2		39/59						
B3	0		0	0				
B4	0		0	0				
B5	0		0	0				
B6	1							
B7	9	6	22	14	capable of inducing tolerance towards itself	high immune reactivity	highly T cell reactive sequences	two
B8	0		0	0				
B9	0		0	0				
